Measurements reported in patent US20240010684A1, “MASP INHIBITORY COMPOUNDS AND USES THEREOF” (BAYER AKTIENGESELLSCHAFT, priority 2020, published 2024).
Bridges are numbered along the chain shown (N, C = ends). [ ]: non-standard residue; d: D form. Oic = O=C(O)[C@@H]1C[C@@H]2CCCC[C@@H]2N1; Trx = NC[C@H]1CC[C@H](C(=O)O)CC1; tBuAla = CC(C)(C)C[C@H](N)C(=O)O; Pen = CC(C)(S)[C@H](N)C(=O)O; NMeC = CN[C@@H](CS)C(=O)O; Abu = CC[C@H](N)C(=O)O; Ahx = NCCCCCC(=O)O; GABA = NCCCC(=O)O; Sar = CNCC(=O)O

T1: recombinant human MASP1 (amino acids 297-699, C-terminal His Tag) (human), P48740
T1 chain: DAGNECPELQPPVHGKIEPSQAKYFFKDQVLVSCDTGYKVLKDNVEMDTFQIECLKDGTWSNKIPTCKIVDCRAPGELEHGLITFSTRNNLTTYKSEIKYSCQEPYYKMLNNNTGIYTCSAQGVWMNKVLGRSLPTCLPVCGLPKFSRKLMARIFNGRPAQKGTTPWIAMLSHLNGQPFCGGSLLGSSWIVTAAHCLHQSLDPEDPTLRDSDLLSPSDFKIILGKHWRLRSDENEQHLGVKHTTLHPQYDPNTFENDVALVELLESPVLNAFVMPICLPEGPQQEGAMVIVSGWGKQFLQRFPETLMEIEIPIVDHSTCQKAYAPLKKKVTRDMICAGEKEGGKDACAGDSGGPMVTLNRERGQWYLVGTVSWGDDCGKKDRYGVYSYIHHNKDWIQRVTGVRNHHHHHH

T2: recombinant rat MASP1 (amino acids 302-704, C-terminal His Tag) (rat), Q8CHN8
T2 chain: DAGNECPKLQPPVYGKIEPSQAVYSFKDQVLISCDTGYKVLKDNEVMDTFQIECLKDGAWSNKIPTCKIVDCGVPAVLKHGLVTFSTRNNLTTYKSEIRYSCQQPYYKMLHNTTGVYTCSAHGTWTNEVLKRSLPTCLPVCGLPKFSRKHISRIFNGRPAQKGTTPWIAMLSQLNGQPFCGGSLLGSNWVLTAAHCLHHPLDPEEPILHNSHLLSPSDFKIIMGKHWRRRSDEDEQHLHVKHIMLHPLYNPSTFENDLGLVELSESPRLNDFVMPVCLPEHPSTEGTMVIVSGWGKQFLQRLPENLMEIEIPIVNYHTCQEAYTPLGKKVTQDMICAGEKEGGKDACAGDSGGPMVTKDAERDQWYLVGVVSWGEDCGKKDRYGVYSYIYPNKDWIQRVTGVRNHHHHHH

T3: recombinant human MASP1 (amino acids 297-699, C-terminal His Tag) (human) (UniProt P48740)
T3 sequence: T1 chain


Target: recombinant human MASP2 (amino acids 297-686, C-terminal His Tag) (human), O00187
Assay: cell-based or functional assay

Chain of recombinant human MASP2 (amino acids 297-686, C-terminal His Tag) (human), O00187 (O00187 other isoform, or with tags, fused parts or gaps limits assumed): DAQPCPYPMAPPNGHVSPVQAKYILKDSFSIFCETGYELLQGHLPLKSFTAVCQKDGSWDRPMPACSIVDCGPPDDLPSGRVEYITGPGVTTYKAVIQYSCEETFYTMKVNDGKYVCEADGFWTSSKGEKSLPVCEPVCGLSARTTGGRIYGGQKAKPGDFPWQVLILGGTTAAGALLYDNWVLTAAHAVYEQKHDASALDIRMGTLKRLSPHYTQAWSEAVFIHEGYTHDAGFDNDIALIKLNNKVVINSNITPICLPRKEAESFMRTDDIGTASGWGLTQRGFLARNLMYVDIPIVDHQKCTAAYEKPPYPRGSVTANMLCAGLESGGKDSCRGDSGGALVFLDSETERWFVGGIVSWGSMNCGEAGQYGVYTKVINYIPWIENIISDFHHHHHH

Row | human MASP2 IC50 | Binder
1 | > 3000 nM | GRCTKSIPPICFPD (modifications not checked) [Bicyclic SFTI-1: G**RC+TKSIPPIC+FPD**]

Target: T1, recombinant human MASP1 (amino acids …)
Assay: cell-based or functional assay

Row | human MASP1 IC50 | Binder
2 | > 3000 nM | GRCTKSIPPICFPD (modifications not checked) [Bicyclic SFTI-1: G**RC+TKSIPPIC+FPD**]

Target: recombinant rat MASP2 (amino acids 296-685, C-terminal His Tag) (rat), Q9JJS8
Assay: cell-based or functional assay

Chain of recombinant rat MASP2 (amino acids 296-685, C-terminal His Tag) (rat), Q9JJS8 (Q9JJS8 other isoform, or with tags, fused parts or gaps limits assumed): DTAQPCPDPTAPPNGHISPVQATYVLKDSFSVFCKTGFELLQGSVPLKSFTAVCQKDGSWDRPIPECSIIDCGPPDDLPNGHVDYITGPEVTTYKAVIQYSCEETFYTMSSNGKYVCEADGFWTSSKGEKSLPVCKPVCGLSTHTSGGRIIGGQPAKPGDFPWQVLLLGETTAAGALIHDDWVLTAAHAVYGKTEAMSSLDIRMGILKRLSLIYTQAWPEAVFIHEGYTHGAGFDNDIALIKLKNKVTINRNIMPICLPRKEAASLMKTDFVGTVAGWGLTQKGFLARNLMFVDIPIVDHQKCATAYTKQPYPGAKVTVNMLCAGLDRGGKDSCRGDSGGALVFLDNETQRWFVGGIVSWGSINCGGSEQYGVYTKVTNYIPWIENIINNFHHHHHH

Row | rat MASP2 IC50 | Binder
3 | 1000 nM | GRCTKSIPPICFPD (modifications not checked) [Bicyclic SFTI-1: G**RC+TKSIPPIC+FPD**]

Target: T2, recombinant rat MASP1 (amino acids …)
Assay: cell-based or functional assay

Row | rat MASP1 IC50 | Binder
4 | 1000 nM | GRCTKSIPPICFPD (modifications not checked) [Bicyclic SFTI-1: G**RC+TKSIPPIC+FPD**]

Target: recombinant human MASP2 (amino acids 297-686, C-terminal His Tag) (human) (UniProt O00187)
Assay: cell-based or functional assay

Chain of recombinant human MASP2 (amino acids 297-686, C-terminal His Tag) (human) (O00187 other isoform, or with tags, fused parts or gaps limits assumed): as the sequence (O00187 other isoform, or with tags, fused parts or gaps limits assumed) above

Row | Binder | human MASP2 IC50
5 | G[Trx]GICSRS[tBuAla]PPI[NMeC]IPD-NH2 (disulfide 5-13; lactam N-16; also: TFA salt) [Example 69: G**-(TXA)-GIC+SRS-((tBu)A)-PPI-((N-Me)C)+-IPD++-NH2] | 190 nM
6 | cyclo([Ahx][Abu]ICSRS[tBuAla]PPI[NMeC]IPD) (disulfide 4-12; also: TFA salt) [Example 33: (Ahx)**-(Abu)-IC+SRS-((tBu)A)-PPI-((N-Me)C)+-IPD**] | 62 nM
7 | cyclo([Ahx]GICSRS[tBuAla]PPI[NMeC]IPD) (disulfide 4-12; also: TFA salt) [Example 30: (Ahx)**-GIC+SRS-((tBu)A)-PPI-((N-Me)C)+-IPD**] | 65 nM
8 | cyclo([GABA]ICSRS[tBuAla]PPI[NMeC]IPD) (disulfide 3-11; also: TFA salt) [Example 36: (Gamma-Abu)**-IC+SRS-((tBu)A)-PPI-((N-Me)C)+-IPD**] | 110 nM

The remaining lines, values ahead:

Row | human MASP2 IC50 | Binder
9 | 130 nM | cyclo(AGAICSRS[tBuAla]PPI[NMeC]IPD) (disulfide 5-13; also: TFA salt) [Example 31: A**GAIC+SRS-((tBu)A)-PPI-((N-Me)C)+-IPD**]
10 | 180 nM | [Ahx][Sar]GICSRSLP[Oic]I[Pen]IPE-NH2 (disulfide 5-13; lactam N-16; also: TFA salt) [Example 76: (Ahx)**-((N-Me)G)-GIC+SRSLP-(Oic)-I-(Pen)+-IPE++-NH2]
11 | 90 nM | [Ahx]GICSRS[tBuAla]PPI[NMeC]IPD-NH2 (disulfide 4-12; lactam N-15; also: TFA salt) [Example 40: (Ahx)**-GIC+SRS-((tBu)A)-PPI-((N-Me)C)+-IPD++-NH2]

Target: T3, recombinant human MASP1 (amino acids 297-699, C-terminal His Tag) (human)
Assay: cell-based or functional assay

Row | Binder | human MASP1 IC50
12 | G[Trx]GICSRS[tBuAla]PPI[NMeC]IPD-NH2 (disulfide 5-13; lactam N-16; also: TFA salt) [Example 69: G**-(TXA)-GIC+SRS-((tBu)A)-PPI-((N-Me)C)+-IPD++-NH2] | 20 nM
13 | cyclo([Ahx][Abu]ICSRS[tBuAla]PPI[NMeC]IPD) (disulfide 4-12; also: TFA salt) [Example 33: (Ahx)**-(Abu)-IC+SRS-((tBu)A)-PPI-((N-Me)C)+-IPD**] | 28 nM
14 | cyclo([Ahx]GICSRS[tBuAla]PPI[NMeC]IPD) (disulfide 4-12; also: TFA salt) [Example 30: (Ahx)**-GIC+SRS-((tBu)A)-PPI-((N-Me)C)+-IPD**] | 16 nM
15 | cyclo([GABA]ICSRS[tBuAla]PPI[NMeC]IPD) (disulfide 3-11; also: TFA salt) [Example 36: (Gamma-Abu)**-IC+SRS-((tBu)A)-PPI-((N-Me)C)+-IPD**] | 8.7 nM

Next, values leading:

Row | human MASP1 IC50 | Binder
16 | 16 nM | cyclo(AGAICSRS[tBuAla]PPI[NMeC]IPD) (disulfide 5-13; also: TFA salt) [Example 31: A**GAIC+SRS-((tBu)A)-PPI-((N-Me)C)+-IPD**]
17 | 9.7 nM | [Ahx][Sar]GICSRSLP[Oic]I[Pen]IPE-NH2 (disulfide 5-13; lactam N-16; also: TFA salt) [Example 76: (Ahx)**-((N-Me)G)-GIC+SRSLP-(Oic)-I-(Pen)+-IPE++-NH2]
18 | 7.1 nM | [Ahx]GICSRS[tBuAla]PPI[NMeC]IPD-NH2 (disulfide 4-12; lactam N-15; also: TFA salt) [Example 40: (Ahx)**-GIC+SRS-((tBu)A)-PPI-((N-Me)C)+-IPD++-NH2]
